Source: patent US7083949

Assays:
human IL-6 (human) [1] = target: human IL-6 (human) (UniProt P05231); assay: cell-based or functional assay
human IL-6 (human) [2] = target: human IL-6 (human) (UniProt P05231); assay: 20 pM 125I-IL-6 preincubated with 500 pM mAb B-E8 for 20 hours, chase with 20 nM unlabelled IL-6, Protein G-Sepharose precipitation

Sequence of human IL-6 (human) (P05231 30-212 limits assumed): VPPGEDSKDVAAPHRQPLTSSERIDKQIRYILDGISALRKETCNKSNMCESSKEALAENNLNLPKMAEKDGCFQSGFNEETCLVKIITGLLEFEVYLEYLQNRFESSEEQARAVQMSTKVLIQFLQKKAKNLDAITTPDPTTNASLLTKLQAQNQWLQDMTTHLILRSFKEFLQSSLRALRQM

inhibition of IL-6-dependent proliferation of XG-1 cells (MTT) (fold molar excess over IL-6) (human IL-6 (human) [1]): 10
percent of initial 125I-IL-6 counts still bound after three days (human IL-6 (human) [2]): < 5%
B1: anti-IL-6 monoclonal neutralizing antibody B-E8 (antibody, from another filing, V domains shown)
VH: QVTLKESGPGILKPSQTLSLTCSFSGFSLSTSGMGVGWIRQPSGKGLEWLAHIWWDDDKYYNPSLKSQLTISKDTSRNQVFLKITSVDTADTATYYCARSYDDYLYYALDYWGQGTSVTVSS
VL: DIVMTQSPATLSVTPGDRVSLSCRASQSISDYLHWYQQKSHESPRLLIKSVSQSISGIPSRFSGSGSGSDFTLSINSVEPEDVGVYYCQNGHSFPLTFGAGTKLELK
